PMC6744581 (2019)

B1: GFP-RhoBTB1 [human] / myc-ROCK1^1–727 [human] (parent complex)
chain 1: MDADMDYERPNVETIKCVVVGDNAVGKTRLICARACNTTLTQYQLLATHVPTVWAIDQYRVCQEVLERSRDVVDEVSVSLRLWDTFGDHHKDRRFAYGRSDVVVLCFSIANPNSLNHVKSMWYPEIKHFCPRTPVILVGCQLDLRYADLEAVNRARRPLARPIKRGDILPPEKGREVAKELGLPYYETSVFDQFGIKDVFDNAIRAALISRRHLQFWKSHLKKVQKPLLQAPFLPPKAPPPVIKIPECPSMGTNEAACLLDNPLCADVLFILQDQEHIFAHRIYLATSSSKFYDLFLMECEESPNGSEGACEKEKQSRDFQGRILSVDPEEEREEGPPRIPQADQWKSSNKSLVEALGLEAEGAVPETQTLTGWSKGFIGMHREMQVNPISKRMGPMTVVRMDASVQPGPFRTLLQFLYTGQLDEKEKDLVGLAQIAEVLEMFDLRMMVENIMNKEAFMNQEITKAFHVRKANRIKECLSKGTFSDVTFKLDDGAISAHKPLLICSCEWMAAMFGGSFVESANSEVYLPNINKISMQAVLDYLYTKQLSPNLDLDPLELIALANRFCLPHLVALAEQHAVQELTKAATSGVGIDGEVLSYLELAQFHNAHQLAAWCLHHICTNYNSVCSKFRKEIKSKSADNQEYFERHRWPPVWYLKEEDHYQRVKREREKEDIALNKHRSRRKWCFWNSSPAVA
chain 2: MSTGDSFETRFEKMDNLLRDPKSEVNSDCLLDGLDALVYDLDFPALRKNKNIDNFLSRYKDTINKIRDLRMKAEDYEVVKVIGRGAFGEVQLVRHKSTRKVYAMKLLSKFEMIKRSDSAFFWEERDIMAFANSPWVVQLFYAFQDDRYLYMVMEYMPGGDLVNLMSNYDVPEKWARFYTAEVVLALDAIHSMGFIHRDVKPDNMLLDKSGHLKLADFGTCMKMNKEGMVRCDTAVGTPDYISPEVLKSQGGDGYYGRECDWWSVGVFLYEMLVGDTPFYADSLVGTYSKIMNHKNSLTFPDDNDISKEAKNLICAFLTDREVRLGRNGVEEIKRHLFFKNDQWAWETLRDTVAPVVPDLSSDIDTSNFDDLEEDKGEEETFPIPKAFVGNQLPFVGFTYYSNRRYLSSANPNDNRTSSNADKSLQESLQKTIYKLEEQLHNEMQLKDEMEQKCRTSNIKLDKIMKELDEEGNQRRNLESTVSQIEKEKMLLQHRINEYQRKAEQENEKRRNVENEVSTLKDQLEDLKKVSQNSQLANEKLSQLQKQLEEANDLLRTESDTAVRLRKSHTEMSKSISQLESLNRELQERNRILENSKSQTDKDYYQLQAILEAERRDRGHDSEMIGDLQARITSLQEEVKHLKHNLEKVEGERKEAQDMLNHSEKEKNNLEIDLNYKLKSLQQRLEQEVNEHKVTKARLTDKHQSIEEAKSVAMCEMEKKLKEEREAR

Variants of: B1
Assay: co-immunoprecipitation (GFP-trap) with band density quantification; COS7 cells, 24 h after transfection; five independent experiments; parent: 0.52; read off a plot

Row | response | Variant
1 | ~0.48 relative value myc IP/GFP IP | chain 1 K197A
2 | ~1.4 relative value myc IP/GFP IP | chain 1 E64A, chain 1 K197A
3 | ~0.63 relative value myc IP/GFP IP | chain 1 D198A

Variants of: B1
Assay: co-immunoprecipitation (GFP-trap) with band density quantification; COS7 cells, 24 h after transfection; three independent experiments; parent: 1.1; read off a plot

Row | response | Variant
4 | ~2 relative value myc IP/GFP IP | chain 1 E64A, chain 1 K197A
5 | ~1.2 relative value myc IP/GFP IP | chain 1 E64A, chain 1 K197A, chain 1 D198A
6 | ~1.5 relative value myc IP/GFP IP | chain 1 E64A
7 | ~1.1 relative value myc IP/GFP IP | chain 1 R60A, chain 1 C62A, chain 1 E64A
